One molecule from patent US6432692B1, “Sensitive bioassay for detecting agonists of the aryl hydrocarbon receptor” (Wisconsin Alumni Research Foundation, priority 1999, dated 2002) can be followed below.

The test has as its system AHR. Briefly: Coimmunoprecipitation of 35S-labeled AHR with T7-tagged ARA9 or FKBP52. It is filed as binding. Particulars: T7-agarose coimmunoprecipitation, reticulocyte lysate AHR. The procedure: Bacterial Expression: The ARA9 and FKBP52 proteins tagged with the T7 peptide (PL799, PL1004, PL1005 and PL947) were expressed in BL21(DE3) bacteria (Novagen). The T7 tag is an 11 amino acid peptide, MASMTGGQQMG, that facilitates detection and purification of the recombinant protein using anti-T7 antibodies (Novagen). Saturated cultures were used to inoculate LB growth media supplemented with 0.4 mM IPTG and 100 μg/ml ampicillin. The bacteria were allowed to grow an additional 4 hours at 37° C and pelleted by centrifugation at 5000×g for 5 min. The pellet was resuspended in bind/wash buffer (4.29 mM Na2HPO4, 1.47 mM KH2PO4, 2.7 mM KCl, 0.137 M NaCl, 0.1% (v/v) Tween and 0.002% (w/v) NaN3). The resulting mixture was disrupted using four ×15 second sonic pulses on ice. Insoluble debris was removed by centrifugation at 12,000×g for 20 minutes at 4° C. The supernatant was passed through a […] filter and protein concentrations determined by the BCA protein assay (Pierce, Rockford Ill.). […] The complexes were then precipitated and analyzed by SDS-PAGE and autoradiography.
Specificity of ARA9 for AHR: The structural similarity between ARA9 and FKBP52 led us to compare the relative capacity of these two factors to bind AHR. […] The AHR-ARA9 or AHR-FKBP52 associations were determined by coimmunoprecipitation with T7-agarose.

B1: ARA9: 37 kDa Ah receptor-associated protein, immunophilin structurally similar to FKBP52 (protein, UniProt O08915 1-330, looked up)
AH receptor-interacting …: MADLIARLREDGIQKRVIQEGRGELPDFQDGTKATFHFRTLHSDNEGSVIDDSRTRGKPMELIVGKKFKLPVWETIVCTMREGEIAQFLCDIKHVVLYPLVAKSLRNIAEGKDPLEGQRHCCGIAQMHEHSSLGHADLDALQQNPQPLIFHIEMLKVESPGTYQQDPWAMTDEEKAKAVPVIHQEGNRLYREGQVKEAAAKYYDAIACLKNLQMKEQPGSPDWIQLDLQITPLLLNYCQCKLVAQEYYEVLDHCSSILNKYDDNVKAYFKRGKAHAAVWNAQEAQADFAKVLELDPALAPVVSRELRALETRIRQKDEEDKARFRGIFSH
For the molecule B1, the “efficiency at precipitating AHR relative to FKBP52” value is on record as “approximately four times more efficient”.
